According to US8729232:

Test system: T1, biotinylated 13-mer peptide LCTPSKGSLFTGR (native Mtb motif with arginine to lysine substitution at position 6)
T1 sequence: LCTPSKGSLFTGR

Mycobacterium tuberculosis formylglycine generating enzyme (Mtb FGE, Rv0712), recombinant
FGly conversion detected by MALDI-TOF: A peak indicating the FGly-modified species appeared
